# Source: patent publication US7067486
# Molecular target: PKCβII of mouse brain (UniProt P68404)
# Sequence (P68404 other isoform, or with tags, fused parts or gaps): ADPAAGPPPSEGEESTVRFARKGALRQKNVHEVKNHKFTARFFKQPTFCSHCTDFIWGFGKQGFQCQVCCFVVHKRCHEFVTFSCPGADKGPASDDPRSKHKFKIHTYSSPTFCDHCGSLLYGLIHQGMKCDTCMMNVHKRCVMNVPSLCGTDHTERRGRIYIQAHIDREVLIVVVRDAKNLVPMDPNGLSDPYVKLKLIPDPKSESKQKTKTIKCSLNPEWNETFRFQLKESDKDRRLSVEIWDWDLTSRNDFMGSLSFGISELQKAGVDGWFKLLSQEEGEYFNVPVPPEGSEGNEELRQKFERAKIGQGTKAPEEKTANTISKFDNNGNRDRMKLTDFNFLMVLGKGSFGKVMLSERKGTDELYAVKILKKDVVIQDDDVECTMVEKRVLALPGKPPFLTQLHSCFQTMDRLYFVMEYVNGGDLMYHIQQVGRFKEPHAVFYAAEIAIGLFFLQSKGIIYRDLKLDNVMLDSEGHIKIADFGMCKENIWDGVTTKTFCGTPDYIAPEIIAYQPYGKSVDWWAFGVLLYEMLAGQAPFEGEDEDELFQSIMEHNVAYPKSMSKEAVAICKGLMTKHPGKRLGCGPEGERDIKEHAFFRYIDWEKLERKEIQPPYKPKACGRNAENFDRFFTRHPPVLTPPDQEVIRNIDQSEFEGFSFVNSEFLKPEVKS
substance,measurement,value
"human ""readthrough"" acetylcholinesterase variant AChE-R, recombinant full protein","PKC activity in brain homogenates (PKC assay kit, Upstate Biotechnology)",Note the elevation of PKC activity in the different brain regions in the AChE-R transgenics as compered to FVB/N controls
